{"source": "the supplement of paper PMC9112550", "about": "“Optimization of the antimicrobial peptide Bac7 by deep mutational scanning” (BMC Biology, 2022);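 note: peptides expressed intracellularly from a pBAD plasmid library in pooled LB shake-flask culture, induced with 0.3% L-arabinose, DNA abundance read by NGS, three biological replicates, DESeq2 with apeglm shrinkage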"}
{"tested_on": "Escherichia coli TOP10", "assay": "shrunken log2 fold change of peptide-encoding DNA abundance (4.5 h post-induction vs induction); higher = less antimicrobial activity (less host growth inhibition)", "conditions": "time post-induction: 4.5 h; library: site-saturation at positions 5, 18, 19, 20"}
{"sequence": "RRIRVRPPRLPRPRPRPEYCPRP", "shrunken log2 fold change": -0.154}
{"sequence": "RRIRWRPPRLPRPRPRPIILPRP", "shrunken log2 fold change": -0.283}
{"sequence": "RRIRWRPPRLPRPRPRPGGCPRP", "shrunken log2 fold change": 0.732}
{"sequence": "RRIRLRPPRLPRPRPRPHPCPRP", "shrunken log2 fold change": -0.0967}
{"sequence": "RRIRRRPPRLPRPRPRPRWLPRP", "shrunken log2 fold change": 0.388}
{"sequence": "RRIRMRPPRLPRPRPRPKIKPRP", "shrunken log2 fold change": 0.248}
{"sequence": "RRIRVRPPRLPRPRPRPWEFPRP", "shrunken log2 fold change": -0.102}
{"sequence": "RRIRRRPPRLPRPRPRPNMEPRP", "shrunken log2 fold change": 0.0673}
{"sequence": "RRIRRRPPRLPRPRPRPRTIPRP", "shrunken log2 fold change": 0.134}
{"sequence": "RRIRVRPPRLPRPRPRPCMAPRP", "shrunken log2 fold change": -0.276}
{"sequence": "RRIRQRPPRLPRPRPRPCACPRP", "shrunken log2 fold change": 0.0128}
{"sequence": "RRIRMRPPRLPRPRPRPEIFPRP", "shrunken log2 fold change": 1.27}
{"sequence": "RRIRDRPPRLPRPRPRPISHPRP", "shrunken log2 fold change": 0.0261}
{"sequence": "RRIRHRPPRLPRPRPRPRRMPRP", "shrunken log2 fold change": 0.254}
{"sequence": "RRIRMRPPRLPRPRPRPATRPRP", "shrunken log2 fold change": 1.58}
{"sequence": "RRIRRRPPRLPRPRPRPSDEPRP", "shrunken log2 fold change": -0.0356}
{"sequence": "RRIRTRPPRLPRPRPRPDGRPRP", "shrunken log2 fold change": -0.0138}
{"sequence": "RRIRWRPPRLPRPRPRPQCGPRP", "shrunken log2 fold change": -0.0434}
{"sequence": "RRIRWRPPRLPRPRPRPEDMPRP", "shrunken log2 fold change": 0.282}
{"sequence": "RRIRMRPPRLPRPRPRPKTYPRP", "shrunken log2 fold change": -0.0099}
{"sequence": "RRIRERPPRLPRPRPRPHQVPRP", "shrunken log2 fold change": -0.0847}
{"sequence": "RRIRPRPPRLPRPRPRPVAHPRP", "shrunken log2 fold change": 0.0324}
{"sequence": "RRIRNRPPRLPRPRPRPPINPRP", "shrunken log2 fold change": -0.186}
{"sequence": "RRIRWRPPRLPRPRPRPWHTPRP", "shrunken log2 fold change": 0.103}
{"sequence": "RRIRLRPPRLPRPRPRPHTMPRP", "shrunken log2 fold change": -1.13}
{"sequence": "RRIRKRPPRLPRPRPRPIPNPRP", "shrunken log2 fold change": 0.159}
{"sequence": "RRIRRRPPRLPRPRPRPPPRPRP", "shrunken log2 fold change": 1.32}
{"sequence": "RRIRHRPPRLPRPRPRPLDSPRP", "shrunken log2 fold change": -0.448}
{"sequence": "RRIRRRPPRLPRPRPRPVSGPRP", "shrunken log2 fold change": 0.366}
{"sequence": "RRIRERPPRLPRPRPRPVKQPRP", "shrunken log2 fold change": -0.0109}
{"sequence": "RRIRQRPPRLPRPRPRPEWVPRP", "shrunken log2 fold change": 3.27}
{"sequence": "RRIRPRPPRLPRPRPRPDGPPRP", "shrunken log2 fold change": -0.101}
{"sequence": "RRIRVRPPRLPRPRPRPHWMPRP", "shrunken log2 fold change": -0.32}
{"sequence": "RRIRLRPPRLPRPRPRPTFFPRP", "shrunken log2 fold change": 0.14}
{"sequence": "RRIRLRPPRLPRPRPRPELEPRP", "shrunken log2 fold change": 0.23}
{"sequence": "RRIRNRPPRLPRPRPRPQIDPRP", "shrunken log2 fold change": -0.0557}
{"sequence": "RRIRVRPPRLPRPRPRPTRYPRP", "shrunken log2 fold change": -0.0106}
{"sequence": "RRIRVRPPRLPRPRPRPVWAPRP", "shrunken log2 fold change": 0.394}
{"sequence": "RRIRSRPPRLPRPRPRPYFNPRP", "shrunken log2 fold change": -0.626}
{"sequence": "RRIRSRPPRLPRPRPRPLDPPRP", "shrunken log2 fold change": -0.0203}
{"sequence": "RRIRRRPPRLPRPRPRPTLIPRP", "shrunken log2 fold change": 0.157}
{"sequence": "RRIRYRPPRLPRPRPRPPTHPRP", "shrunken log2 fold change": -0.251}
{"sequence": "RRIRVRPPRLPRPRPRPCTKPRP", "shrunken log2 fold change": -0.275}
{"sequence": "RRIRCRPPRLPRPRPRPKDCPRP", "shrunken log2 fold change": -0.0763}
{"sequence": "RRIRYRPPRLPRPRPRPQQYPRP", "shrunken log2 fold change": -1}
{"sequence": "RRIRRRPPRLPRPRPRPAILPRP", "shrunken log2 fold change": -0.017}
{"sequence": "RRIRQRPPRLPRPRPRPSDMPRP", "shrunken log2 fold change": 0.0447}
{"sequence": "RRIRNRPPRLPRPRPRPPGQPRP", "shrunken log2 fold change": 0.0465}
{"sequence": "RRIRFRPPRLPRPRPRPYRWPRP", "shrunken log2 fold change": -0.0143}
{"sequence": "RRIRGRPPRLPRPRPRPWAIPRP", "shrunken log2 fold change": 0.259}
{"sequence": "RRIRYRPPRLPRPRPRPLMFPRP", "shrunken log2 fold change": -1.04}
{"sequence": "RRIRIRPPRLPRPRPRPWTAPRP", "shrunken log2 fold change": -0.307}
{"sequence": "RRIRLRPPRLPRPRPRPHFTPRP", "shrunken log2 fold change": -0.355}
{"sequence": "RRIRCRPPRLPRPRPRPPSMPRP", "shrunken log2 fold change": 0.0264}
{"sequence": "RRIRERPPRLPRPRPRPVDAPRP", "shrunken log2 fold change": -0.137}
{"sequence": "RRIRPRPPRLPRPRPRPGQQPRP", "shrunken log2 fold change": 0.167}
{"sequence": "RRIRHRPPRLPRPRPRPWFTPRP", "shrunken log2 fold change": -0.0018}
{"sequence": "RRIRQRPPRLPRPRPRPDYCPRP", "shrunken log2 fold change": -0.163}
{"sequence": "RRIRKRPPRLPRPRPRPCIRPRP", "shrunken log2 fold change": -0.049}
{"sequence": "RRIRGRPPRLPRPRPRPSVTPRP", "shrunken log2 fold change": 0.708}
